Measured values from PMC8297500.
Values joined by “and” are separate entries in the source; they are usually repeats but may differ in a detail not shown here. Identical values can stand only once.

What was measured:
[1] = molecular target: Theileria parva schizont antigen Tp2, bacterially expressed recombinant protein with His-tag (Theileria parva (Muguga)); assay: SEC; preparative SEC (Generon ProteoSEC 3-70 kD) after affinity chromatography; 20 mM PO4, 250 mM NaCl, 0.02% NaN3, pH 7.5; apparent masses from elution times
[2] = molecular target: Theileria parva schizont antigen Tp2, bacterially expressed recombinant protein with His-tag (Theileria parva (Muguga)); assay: SEC-MALS; apparent dimer fraction from preparative SEC; FPLC (Shimadzu) with Wyatt scattering and refractive index detectors

Theileria parva schizont antigen Tp2, bacterially expressed recombinant protein with His-tag (natural protein)
stoichiometry N [1]: 4 and 2
stoichiometry N [2]: 2
